Measurements taken from patent publication US20200102347A1 (AUCTUS BIOLOGIES, published 2020).
Values belong to the binder of their own block, whether it stands above or below them. No end group written: not given here. *: point of attachment. RhodamineB = CCN(CC)c1ccc2c(-c3ccccc3C(=O)*)c3ccc(=[N+](CC)CC)cc-3oc2c1

Columns and labels:
[1] = molecular target: T1, NativeRPtag small for immobilization (Thermoanaerobacter tengcongensis, C-terminal Cys (GGC) coupled to SulfoLink agarose resin); test: column binding; non-complementary tagRFP fusion applied to immobilized RPtag (small), washed, photographed
T1 construct: also called immobilized RPtag (small)
T1 peptide: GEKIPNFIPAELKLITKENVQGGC

[2] = molecular target: T2, NativeRPtag(large)_with_Tags_and_Cys (Thermoanaerobacter tengcongensis); test: column binding; 25 mL of 1 µM tagRFP fusion applied to immobilized RPtag (large), washed with 10 mL TNE buffer, photographed
T2 construct: Unlabeled in anisotropy assays; coupled through the engineered N-terminal Cys to SulfoLink agarose or maleimide plates in column, pull-down and ELISA assays
T2 chain: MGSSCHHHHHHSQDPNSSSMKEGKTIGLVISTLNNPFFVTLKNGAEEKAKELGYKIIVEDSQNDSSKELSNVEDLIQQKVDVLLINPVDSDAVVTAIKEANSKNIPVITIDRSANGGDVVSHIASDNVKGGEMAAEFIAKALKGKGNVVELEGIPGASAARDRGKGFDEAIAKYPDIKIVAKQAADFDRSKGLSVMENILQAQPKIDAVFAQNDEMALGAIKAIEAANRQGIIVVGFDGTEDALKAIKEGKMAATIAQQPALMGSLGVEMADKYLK
Procedure: (§1) After purification of the tagged proteins, each was applied to its complementary column to evaluate binding. […] Briefly, columns were first equilibrated in 20 mM Tris pH 8.0, 150 mM NaCl, 1 mM EDTA (TNE buffer), then 25 mL of 1 μM tagged protein in TNE buffer was applied to the column at a flow rate of 1 ml/min, then washed with 10 mL of TNE buffer. Columns were cleaned with 10 mL 100 mM Glycine pH 1.5 between uses.
(§2) Briefly, columns were equilibrated in 20 mM Tris pH 8.0, 150 mM NaCl, 1 mM EDTA (TEN buffer), then 25 mL of 1 μM tagged protein in TEN buffer was applied to the column at a flow rate of 1 ml/min. Thereafter, the column was washed with 10 mL of TEN buffer, and the results recorded by photograph (FIG. 8). Columns were cleaned with 10 mL 100 mM Glycine pH 1.5 between uses.

[3] = molecular target: T2, NativeRPtag(large)_with_Tags_and_Cys; test: column binding; non-complementary tagRFP fusion applied to immobilized RPtag (large), washed, photographed
[4] = molecular target: T1, NativeRPtag small for immobilization; test: column binding; 25 mL of 1 µM tagRFP fusion applied to immobilized RPtag (small), washed with 10 mL TNE buffer, photographed
Procedure: as §1, §2

[5] = molecular target: T3, NativeRPtag(large)_with_Tags_and_Cys (Thermoanaerobacter tengcongensis); test: fluorescence anisotropy; KCl (3M)
T3 chain: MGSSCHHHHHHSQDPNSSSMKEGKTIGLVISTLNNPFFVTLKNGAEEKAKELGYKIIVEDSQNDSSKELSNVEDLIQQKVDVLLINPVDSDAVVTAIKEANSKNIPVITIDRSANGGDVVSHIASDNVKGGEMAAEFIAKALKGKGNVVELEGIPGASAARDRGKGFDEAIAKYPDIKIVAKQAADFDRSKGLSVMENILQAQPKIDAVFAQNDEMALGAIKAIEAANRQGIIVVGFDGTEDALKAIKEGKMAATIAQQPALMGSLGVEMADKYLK

[6] = molecular target: T3, NativeRPtag(large)_with_Tags_and_Cys …; test: fluorescence anisotropy; PG (50%)
[7] = molecular target: T3, NativeRPtag(large)_with_Tags_and_Cys …; test: fluorescence anisotropy; BME (10%)
[8] = molecular target: T3, NativeRPtag(large)_with_Tags_and_Cys …; test: fluorescence anisotropy; NaCl (3M)
[9] = molecular target: T3, NativeRPtag(large)_with_Tags_and_Cys …; test: pull-down with RPtag(large) resin
[10] = molecular target: T3, NativeRPtag(large)_with_Tags_and_Cys …; test: fluorescence anisotropy; MgCl2 (3M)
[11] = molecular target: T3, NativeRPtag(large)_with_Tags_and_Cys …; test: fluorescence anisotropy; NH4SO4 (3M)
[12] = molecular target: T3, NativeRPtag(large)_with_Tags_and_Cys …; test: fluorescence anisotropy; ribose (3M)
[13] = molecular target: T3, NativeRPtag(large)_with_Tags_and_Cys …; test: fluorescence anisotropy; DTT (100 mM)
[14] = molecular target: T3, NativeRPtag(large)_with_Tags_and_Cys …; test: fluorescence anisotropy; Tween20 (2%)
[15] = molecular target: T3, NativeRPtag(large)_with_Tags_and_Cys …; test: fluorescence anisotropy; MnSO4 (10 mM)
[16] = molecular target: T3, NativeRPtag(large)_with_Tags_and_Cys …; test: fluorescence anisotropy; acetone (20%)
[17] = molecular target: T3, NativeRPtag(large)_with_Tags_and_Cys …; test: fluorescence anisotropy; sorbitol (3M)
[18] = molecular target: T3, NativeRPtag(large)_with_Tags_and_Cys …; test: fluorescence anisotropy; NiCl2 (100 mM)
[19] = molecular target: T3, NativeRPtag(large)_with_Tags_and_Cys …; test: fluorescence anisotropy; glycerol (20%)
[20] = molecular target: T3, NativeRPtag(large)_with_Tags_and_Cys …; test: fluorescence anisotropy; TritonX-100 (2%)
[21] = molecular target: T3, NativeRPtag(large)_with_Tags_and_Cys …; test: fluorescence anisotropy; DMSO (20%); DMSO (20%)
[22] = molecular target: T3, NativeRPtag(large)_with_Tags_and_Cys …; test: fluorescence anisotropy; EtOH (20%); EtOH (20%)
[23] = molecular target: T3, NativeRPtag(large)_with_Tags_and_Cys …; test: fluorescence anisotropy; MeOH (20%); MeOH (20%)
[24] = molecular target: T3, NativeRPtag(large)_with_Tags_and_Cys …; test: fluorescence anisotropy, buffer additive screen
[25] = molecular target: T3, NativeRPtag(large)_with_Tags_and_Cys …; test: fluorescence anisotropy; 50 mM Tris pH 8.0, 0.005% Tween 20, no additive (Table 2)
[26] = molecular target: T3, NativeRPtag(large)_with_Tags_and_Cys …; test: fluorescence anisotropy; No Additive; No Additive; 100 mM Tris pH 8.0, 0.005% Tween 20 (Table 3)
[27] = molecular target: T3, NativeRPtag(large)_with_Tags_and_Cys …; test: fluorescence anisotropy, competitor chase; 50 mM Tris pH 8.0, 0.005% Tween 20, no additive (Table 2)
[28] = molecular target: T4, RPtag(small) Nd2, Cd4 (Thermoanaerobacter tengcongensis); test: fluorescence anisotropy; 2 nM rhodamine Nd2Cd4, unlabeled RPtag large variant titrated; bar of Ka = 1/Kd, right axis
T4 peptide: RhodamineB-KIPNFIPAELKLITK
Procedure: (§3) After the incubation, fluorescence anisotropy was measured, and the resultant curves were fit with the equation f=y0+(ymax−y0)*(Ptot+x+Kd−sqrt((Ptot+x+Kd)\hat{ }2−4*Ptot*x))/(2*Ptot), where y0 is the baseline anisotropy, ymax is the maximum anisotropy, Ptot is the fixed concentration of labeled peptide used, x is the variable concentration of protein used, and Kd is the measured Kd. […] Buffer was 50 mM Tris pH 8.0, 0.005% Tween20.

[29] = molecular target: T5, MaturePDGF-β_NterminalPeptide; test: fluorescence anisotropy; 20 nM rhodamine PDGF-β N-terminal peptide, unlabeled RPtag large variant titrated; bar of Ka = 1/Kd, left axis
T5 construct: an N-terminal G was added and is left out of the numbering; also called PDGF-β peptide
T5 peptide: RhodamineB-GSLGSLTIAEPAMIAE
Procedure: as §3

[30] = molecular target: T6, RPtag(small) l14a (Thermoanaerobacter tengcongensis, N-terminal rhodamine); test: fluorescence anisotropy; 1 nM rhodamine RPtag small peptide, unlabeled RPtag large titrated, 1 h; 50 mM Tris pH 8.0, 0.005% Tween20; bar of Ka = 1/Kd
T6 peptide: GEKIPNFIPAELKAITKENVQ
Procedure: (§4) Resultant curves were fit with the equation f=y0+(ymax−y0)*(Ptot+x+Kd−sqrt((Ptot+x+Kd)\hat{ }2−4*Ptot*x))/(2*Ptot), where y0 is the baseline anisotropy, ymax is the maximum anisotropy, Ptot is the fixed concentration of labeled peptide used, x is the variable concentration of protein used, and Kd is the measured Kd. […] Buffer was 50 mM Tris pH 8.0, 0.005% tween20.

[31] = molecular target: T7, native RPtag(small) (Thermoanaerobacter tengcongensis, N-terminal rhodamine); test: as above
T7 construct: Synthetic peptide
T7 peptide: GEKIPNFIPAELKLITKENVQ
Procedure: as §4

[32] = molecular target: T8, RPtag(small) l14k (Thermoanaerobacter tengcongensis, N-terminal rhodamine); test: as above
T8 construct: also called L14K RPtag(small)
T8 peptide: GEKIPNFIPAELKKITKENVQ
Procedure: as §4

Binder: PAELKLITK (modifications not checked) [RPtag(small) Nd8, Cd4]
Kd [5]: 0.066 nM
Kd [6]: 4600 nM
Kd [7]: 740 nM
Kd [8]: 0.15 nM
resin binding capacity [9]: 200 nmol/mL
Kd [10]: 240 nM
Kd [11]: 2.8 nM
Kd [12]: 42 nM
Kd [13]: 33 nM
Kd [14]: 45 nM
Kd [15]: 160 nM
Kd [16]: 22 nM
Kd [17]: 16 nM
Kd [18]: 42 nM
Kd [19]: 27 nM
Kd [20]: 180 nM
Kd [21]: 140 nM
Kd [22]: 733 nM
Kd [23]: 34 nM
fold increase of affinity with kosmotropic salts (NaCl, KCl) [24]: > 100 fold
Kd [25]: 14 nM
Kd [26]: 14 nM
koff [27]: > 0.0333 s⁻¹

B3: RPtag(large) f137d (designed binder)
chain: MGSSCHHHHHHSQDPNSSSMKEGKTIGLVISTLNNPFFVTLKNGAEEKAKELGYKIIVEDSQNDSSKELSNVEDLIQQKVDVLLINPVDSDAVVTAIKEANSKNIPVITIDRSANGGDVVSHIASDNVKGGEMAAEDIAKALKGKGNVVELEGIPGASAARDRGKGFDEAIAKYPDIKIVAKQAADFDRSKGLSVMENILQAQPKIDAVFAQNDEMALGAIKAIEAANRQGIIVVGFDGTEDALKAIKEGKMAATIAQQPALMGSLGVEMADKYLK
notes: also called F137D RPtag(large)
binding result [28]: binds
binding result [29]: binds
binding result [30]: binds
binding result [31]: binds
binding result [32]: binds

B4: f137e (designed binder)
single chain: MGSSCHHHHHHSQDPNSSSMKEGKTIGLVISTLNNPFFVTLKNGAEEKAKELGYKIIVEDSQNDSSKELSNVEDLIQQKVDVLLINPVDSDAVVTAIKEANSKNIPVITIDRSANGGDVVSHIASDNVKGGEMAAEEIAKALKGKGNVVELEGIPGASAARDRGKGFDEAIAKYPDIKIVAKQAADFDRSKGLSVMENILQAQPKIDAVFAQNDEMALGAIKAIEAANRQGIIVVGFDGTEDALKAIKEGKMAATIAQQPALMGSLGVEMADKYLK
notes: single mutant of RPtag large; also called RPtag(large) F137E
binding result [28]: binds
binding result [29]: binds
binding result [30]: binds
binding result [31]: binds
binding result [32]: binds

Continued, in another order:

binding result [2]: binds
B1: Nterminally tagged NativeRPtag(small)_tagRFP (other)
chain: MGSSGEKIPNFIPAELKLITKENVQGSENLYFQGGSMVSKGEELIKENMHMKLYMEGTVNNHHFKCTSEGEGKPYEGTQTMRIKVVEGGPLPFAFDILATSFMYGSRTFINHTQGIPDFFKQSFPEGFTWERVTTYEDGGVLTATQDTSLQDGCLIYNVKIRGVNFPSNGPVMQKKTLGWEANTEMLYPADGGLEGRSDMALKLVGGGHLICNFKTTYRSKKPAKNLKMPGVYYVDHRLERIKEADKETYVEQHEVAVARYCDLPSKLGHKLNGSSGHHHHHHHH
notes: Fusion of RPtag(small), TEV site, tagRFP and 8XHis
binding result [1]: no binding (tested: 1 µM (25 mL applied))

binding result [4]: binds
B2: Nterminally_tagged_NativeRPtag(large)_tagRFP (other)
chain: MGSSSQDPNSSSMKEGKTIGLVISTLNNPFFVTLKNGAEEKAKELGYKIIVEDSQNDSSKELSNVEDLIQQKVDVLLINPVDSDAVVTAIKEANSKNIPVITIDRSANGGDVVSHIASDNVKGGEMAAEFIAKALKGKGNVVELEGIPGASAARDRGKGFDEAIAKYPDIKIVAKQAADFDRSKGLSVMENILQAQPKIDAVFAQNDEMALGAIKAIEAANRQGIIVVGFDGTEDALKAIKEGKMAATIAQQPALMGSLGVEMADKYLKGSENLYFQGGSMVSKGEELIKENMHMKLYMEGTVNNHHFKCTSEGEGKPYEGTQTMRIKVVEGGPLPFAFDILATSFMYGSRTFINHTQGIPDFFKQSFPEGFTWERVTTYEDGGVLTATQDTSLQDGCLIYNVKIRGVNFPSNGPVMQKKTLGWEANTEMLYPADGGLEGRSDMALKLVGGGHLICNFKTTYRSKKPAKNLKMPGVYYVDHRLERIKEADKETYVEQHEVAVARYCDLPSKLGHKLNGSSGHHHHHHHH
notes: Fusion of RPtag(large), TEV site, tagRFP and 8XHis
binding result [3]: no binding (tested: 1 µM (25 mL applied))

binding result [2]: binds
B5: Cterminally_tagged_NativeRPtag(small)_tagRFP (other)
chain: MGSSHHHHHHHHGSMVSKGEELIKENMHMKLYMEGTVNNHHFKCTSEGEGKPYEGTQTMRIKVVEGGPLPFAFDILATSFMYGSRTFINHTQGIPDFFKQSFPEGFTWERVTTYEDGGVLTATQDTSLQDGCLIYNVKIRGVNFPSNGPVMQKKTLGWEANTEMLYPADGGLEGRSDMALKLVGGGHLICNFKTTYRSKKPAKNLKMPGVYYVDHRLERIKEADKETYVEQHEVAVARYCDLPSKLGHKLNGSSGENLYFQGGSGEKIPNFIPAELKLITKENVQGS
notes: Fusion of 8XHis, tagRFP, TEV site and RPtag(small)
binding result [1]: no binding (tested: 1 µM (25 mL applied))

binding result [4]: binds
B6: Cterminally_tagged_NativeRPtag(large)_tagRFP (other)
chain: MGSSHHHHHHHHGSMVSKGEELIKENMHMKLYMEGTVNNHHFKCTSEGEGKPYEGTQTMRIKVVEGGPLPFAFDILATSFMYGSRTFINHTQGIPDFFKQSFPEGFTWERVTTYEDGGVLTATQDTSLQDGCLIYNVKIRGVNFPSNGPVMQKKTLGWEANTEMLYPADGGLEGRSDMALKLVGGGHLICNFKTTYRSKKPAKNLKMPGVYYVDHRLERIKEADKETYVEQHEVAVARYCDLPSKLGHKLNGSSGENLYFQGGSSQDPNSSSMKEGKTIGLVISTLNNPFFVTLKNGAEEKAKELGYKIIVEDSQNDSSKELSNVEDLIQQKVDVLLINPVDSDAVVTAIKEANSKNIPVITIDRSANGGDVVSHIASDNVKGGEMAAEFIAKALKGKGNVVELEGIPGASAARDRGKGFDEAIAKYPDIKIVAKQAADFDRSKGLSVMENILQAQPKIDAVFAQNDEMALGAIKAIEAANRQGIIVVGFDGTEDALKAIKEGKMAATIAQQPALMGSLGVEMADKYLK
notes: Fusion of 8XHis, tagRFP, TEV site and RPtag(large)
binding result [3]: no binding (tested: 1 µM (25 mL applied))
